B1: IQUB (parent)
chain: CRNCINLQNEAQKRESFLKYKCLL

Variants of: B1
Test: protein stability index of a GFP-peptide fusion (GPS, HEK-293T) (PSI 1-6); higher = more stable
Conditions: c terminus: a fixed tail appended
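Note: lentivirally expressed fusions sorted by FACS into six bins by GFP to DsRed ratio, PSI derived from sequencing read proportions per bin multiplied by bin number.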

| Variant | protein stability index |
| --- | --- |
| CRNCIELQNEAQKRESFLKYKCLL | 1.7 |
| CRNCIWLQNEAQKRESFLKYKCLL | 1.9 |
| CRNCIALQNEAQKRESFLKYKCLL | 1.77 |
| CRNCICLQNEAQKRESFLKYKCLL | 1.76 |
| CRNCILLQNEAQKRESFLKYKCLL | 2.27 |
| CRNCITLQNEAQKRESFLKYKCLL | 1.72 |
| CRNCIHLQNEAQKRESFLKYKCLL | 1.97 |
| CRNCIVLQNEAQKRESFLKYKCLL | 1.88 |
| CRNCIILQNEAQKRESFLKYKCLL | 2.59 |
| CRNCIKLQNEAQKRESFLKYKCLL | 1.76 |
| CRNCIYLQNEAQKRESFLKYKCLL | 1.48 |
| CRNCIFLQNEAQKRESFLKYKCLL | 2.2 |
| CRNCIRLQNEAQKRESFLKYKCLL | 2.09 |
| CRNCIPLQNEAQKRESFLKYKCLL | 1.7 |
| CRNCIGLQNEAQKRESFLKYKCLL | 1.91 |
| CRNCIDLQNEAQKRESFLKYKCLL | 1.47 |
| CRNCIMLQNEAQKRESFLKYKCLL | 1.46 |
| CRNCIQLQNEAQKRESFLKYKCLL | 2.25 |
| CRNCISLQNEAQKRESFLKYKCLL | 2.37 |
| CRNYINLQNEAQKRESFLKYKCLL | 2.51 |
| CRNRINLQNEAQKRESFLKYKCLL | 3.13 |
| CRNPINLQNEAQKRESFLKYKCLL | 2 |
| CRNVINLQNEAQKRESFLKYKCLL | 1.92 |
| CRNIINLQNEAQKRESFLKYKCLL | 2.28 |

| Variant | protein stability index |
| --- | --- |
| CRNTINLQNEAQKRESFLKYKCLL | 1.69 |
| CRNHINLQNEAQKRESFLKYKCLL | 1.74 |
| CRNWINLQNEAQKRESFLKYKCLL | 1.41 |
| CRNNINLQNEAQKRESFLKYKCLL | 1.93 |
| CRNGINLQNEAQKRESFLKYKCLL | 1.85 |
| CRNAINLQNEAQKRESFLKYKCLL | 2.02 |
| CRNLINLQNEAQKRESFLKYKCLL | 1.53 |
| CRNQINLQNEAQKRESFLKYKCLL | 2.13 |
| CRNKINLQNEAQKRESFLKYKCLL | 2.15 |
| CRNMINLQNEAQKRESFLKYKCLL | 2.12 |
| CRNFINLQNEAQKRESFLKYKCLL | 2.15 |
| CRNEINLQNEAQKRESFLKYKCLL | 1.41 |
| CRNSINLQNEAQKRESFLKYKCLL | 1.51 |
| CRNDINLQNEAQKRESFLKYKCLL | 1.98 |
| CHNCINLQNEAQKRESFLKYKCLL | 2.56 |
| CMNCINLQNEAQKRESFLKYKCLL | 1.89 |
| CLNCINLQNEAQKRESFLKYKCLL | 1.93 |
| CWNCINLQNEAQKRESFLKYKCLL | 1.98 |
| CDNCINLQNEAQKRESFLKYKCLL | 2.3 |
| CSNCINLQNEAQKRESFLKYKCLL | 1.86 |
| CINCINLQNEAQKRESFLKYKCLL | 1.45 |
| CVNCINLQNEAQKRESFLKYKCLL | 1.41 |
| CNNCINLQNEAQKRESFLKYKCLL | 2.22 |
| CQNCINLQNEAQKRESFLKYKCLL | 1.53 |

| Variant | protein stability index |
| --- | --- |
| CCNCINLQNEAQKRESFLKYKCLL | 1.66 |
| CANCINLQNEAQKRESFLKYKCLL | 1.95 |
| CPNCINLQNEAQKRESFLKYKCLL | 2.25 |
| CTNCINLQNEAQKRESFLKYKCLL | 1.93 |
| CFNCINLQNEAQKRESFLKYKCLL | 1.89 |
| CYNCINLQNEAQKRESFLKYKCLL | 1.64 |
| CGNCINLQNEAQKRESFLKYKCLL | 1.28 |
| CKNCINLQNEAQKRESFLKYKCLL | 1.92 |
| CENCINLQNEAQKRESFLKYKCLL | 2.23 |
| CRNCWNLQNEAQKRESFLKYKCLL | 1.4 |
| CRNCRNLQNEAQKRESFLKYKCLL | 1.88 |
| CRNCKNLQNEAQKRESFLKYKCLL | 1.45 |
| CRNCHNLQNEAQKRESFLKYKCLL | 1.8 |
| CRNCSNLQNEAQKRESFLKYKCLL | 1.89 |
| CRNCTNLQNEAQKRESFLKYKCLL | 1.71 |
| CRNCNNLQNEAQKRESFLKYKCLL | 2.33 |
| CRNCDNLQNEAQKRESFLKYKCLL | 2.05 |
| CRNCANLQNEAQKRESFLKYKCLL | 1.79 |
| CRNCGNLQNEAQKRESFLKYKCLL | 1.83 |
| CRNCCNLQNEAQKRESFLKYKCLL | 1.64 |
| CRNCYNLQNEAQKRESFLKYKCLL | 2.21 |
| CRNCLNLQNEAQKRESFLKYKCLL | 2.16 |
| CRNCVNLQNEAQKRESFLKYKCLL | 1.61 |
| CRNCQNLQNEAQKRESFLKYKCLL | 1.97 |

| Variant | protein stability index |
| --- | --- |
| CRNCPNLQNEAQKRESFLKYKCLL | 2.04 |
| CRNCENLQNEAQKRESFLKYKCLL | 2.53 |
| CRNCMNLQNEAQKRESFLKYKCLL | 1.8 |
| ERNCINLQNEAQKRESFLKYKCLL | 1.87 |
| TRNCINLQNEAQKRESFLKYKCLL | 2.66 |
| NRNCINLQNEAQKRESFLKYKCLL | 2.33 |
| WRNCINLQNEAQKRESFLKYKCLL | 2.08 |
| GRNCINLQNEAQKRESFLKYKCLL | 2.13 |
| VRNCINLQNEAQKRESFLKYKCLL | 2.78 |
| FRNCINLQNEAQKRESFLKYKCLL | 1.5 |
| IRNCINLQNEAQKRESFLKYKCLL | 1.41 |
| DRNCINLQNEAQKRESFLKYKCLL | 2.28 |
| HRNCINLQNEAQKRESFLKYKCLL | 2.23 |
| PRNCINLQNEAQKRESFLKYKCLL | 2.19 |
| LRNCINLQNEAQKRESFLKYKCLL | 1.72 |
| KRNCINLQNEAQKRESFLKYKCLL | 1.9 |
| YRNCINLQNEAQKRESFLKYKCLL | 1.86 |
| RRNCINLQNEAQKRESFLKYKCLL | 1.94 |
| SRNCINLQNEAQKRESFLKYKCLL | 1.9 |
| QRNCINLQNEAQKRESFLKYKCLL | 2.01 |
| MRNCINLQNEAQKRESFLKYKCLL | 1.91 |
| ARNCINLQNEAQKRESFLKYKCLL | 2.36 |

— the supplement of paper PMC10567573
